Data reported in the RNAGym collection of RNA variant scans (doi:10.7554/elife.90254).

B1: OR4K15 (parent)
chain: GUUAACGGUCAUAGGCCAUGGAAACUAGGAGCACCAUUUCGCUGCCAGUGAAGAAAUGAACAAAGAAAAUCUGGGCCAGGCAGGCAUCAAAAGAAAUAGUCUUGCGCUCAACCAGAAAGUCUGUAAUCAUUUUAAGGGUA

Variants of: B1
Assay: self-cleavage, relative activity (ratio to wild type); higher = more cleavage; in vitro, sequencing; the parent is a self-cleaving ribozyme

Variant | self-cleavage
GUUAACGGUCAUAGGCCAUGGAAACUAGGAGCACCAUUUCGCUGCCAGUGAAGAAAUGAACAAAGAAAAUCUGGGCCAGGCAGGCAUCAAUAGAAAUAGUCUUGCGCUCUACCAGAAAGUCUGUAAUCAUUUUAAGGGUA [A91U A110U] | 0.82
GUUAACGGUCAUAGGCCAUGGAAACUAGGAGCACCAUUUCGCUGCCAGUGAAGAAAUGAACAAAGAAAAUCUGGGCCAGGCAGGCAUCAAUAGAAAAAGUCUUGCGCUCAACCAGAAAGUCUGUAAUCAUUUUAAGGGUA [A91U U97A] | 2.19
GUUAACGGUCAUAGGCCAUGGAAACUAGGAGCACCAUUUCGCUGCCAGUGAAGAAAUGAACAAAGAAAAUCUGGGCCAGGCAGGCAUCAAUAGAAACAGUCUUGCGCUCAACCAGAAAGUCUGUAAUCAUUUUAAGGGUA [A91U U97C] | 2.02
GUUAACGGUCAUAGGCCAUGGAAACUAGGAGCACCAUUUCGCUGCCAGUGAAGAAAUGAACAAAGAAAAUCUGGGCCAGGCAGGCAUCAAUAGAGAUAGUCUUGCGCUCAACCAGAAAGUCUGUAAUCAUUUUAAGGGUA [A91U A95G] | 2.58
GUUAACGGUCAUAGGCCAUGGAAACUAGGAGCACCAUUUCGCUGCCAGUGAAGAAAUGAACAAAGAAAAUCUGGGCCAGGCAGGCAUCAAUAGAAAUAGUCUUGCGCUCAACCAGAAAGUCCGUAAUCAUUUUAAGGGUA [A91U U122C] | 1.4
GUUAACGGUCAUAGGCCAUGGAAACUAGGAGCACCAUUUCGCUGCCAGUGAAGAAAUGAACAAAGAAAAUCUGGGCCAGGCAGGCAUCAAUAGAAAUAGUCUUGCGCUCAACCAGAAGGUCUGUAAUCAUUUUAAGGGUA [A91U A118G] | 0.94
GUUAACGGUCAUAGGCCAUGGAAACUAGGAGCACCAUUUCGCUGCCAGUGAAGAAAUGAACAAAGAAAAUCUGGGCCAGGCAGGCAUCAAGAGAAAUAGUCUUGCGCUCAACCAGAAAGUCUGUAAUCAUUAUAAGGGUA [A91G U132A] | 0.69
GUUAACGGUCAUAGGCCAUGGAAACUAGGAGCACCAUUUCGCUGCCAGUGAAGAAAUGAACAAAGAAAAUCUGGGCCAGGCAGGCAUCAAGAGAAAUAGUCUUGCGCUCAACCAGAAAGUCUGUAAUCAUUCUAAGGGUA [A91G U132C] | 0.88
GUUAACGGUCAUAGGCCAUGGAAACUAGGAGCACCAUUUCGCUGCCAGUGAAGAAAUGAACAAAGAAAAUCUGGGCCAGGCAGGCAUCAAUAGAAAUAGUCUUGCGCUCAACCAGAAAGUCUGUGAUCAUUUUAAGGGUA [A91U A125G] | 0.38
GUUAACGGUCAUAGGCCAUGGAAACUAGGAGCACCAUUUCGCUGCCAGUGAAGAAAUGAACAAAGAAAAUCUGGGCCAGGCAGGCAUCAAUAGAAAUAGUCUUGCGCUCAACCAGAAAGUCUGUAAUCAUUUUAAGGGUA [A91U] | 1.74
GUUAACGGUCAUAGGCCAUGGAAACUAGGAGCACCAUUUCGCUGCCAGUGAAGAAAUGAACAAAGAAAAUCUGGGCCAGGCAGGCAUCAAGAGAAAUAGUCUUGCGCUCAACCAGAAAGUCUGUAAUCAUUUCAAGGGUA [A91G U133C] | 1.1
GUUAACGGUCAUAGGCCAUGGAAACUAGGAGCACCAUUUCGCUGCCAGUGAAGAAAUGAACAAAGAAAAUCUGGGCCAGGCAGGCAUCAAUAGAAAUAGUCUUGCGCUCAUCCAGAAAGUCUGUAAUCAUUUUAAGGGUA [A91U A111U] | 0.23
GUUAACGGUCAUAGGCCAUGGAAACUAGGAGCACCAUUUCGCUGCCAGUGAAGAAAUGAACAAAGAAAAUCUGGGCCAGGCAGGCAUCAAGAGAAAUAGUCUUGCGCUCAACCAGAAAGUCUGUAAUCAUUUUAAGGGCA [A91G U139C] | 1.71
GUUAACGGUCAUAGGCCAUGGAAACUAGGAGCACCAUUUCGCUGCCAGUGAAGAAAUGAACAAAGAAAAUCUGGGCCAGGCAGGCAUCAAGAGAAAUAGUCUUGCGCUCAACCAGAAAGUCUGUAAUCAUUUUAAGGGAA [A91G U139A] | 1.64
GUUAACGGUCAUAGGCCAUGGAAACUAGGAGCACCAUUUCGCUGCCAGUGAAGAAAUGAACAAAGAAAAUCUGGGCCAGGCAGGCAUCAAUAGGAAUAGUCUUGCGCUCAACCAGAAAGUCUGUAAUCAUUUUAAGGGUA [A91U A94G] | 1.54
GUUAACGGUCAUAGGCCAUGGAAACUAGGAGCACCAUUUCGCUGCCAGUGAAGAAAUGAACAAAGAAAAUCUGGGCCAGGCAGGCAUCAAUAGAAAUGGUCUUGCGCUCAACCAGAAAGUCUGUAAUCAUUUUAAGGGUA [A91U A98G] | 0.61
GUUAACGGUCAUAGGCCAUGGAAACUAGGAGCACCAUUUCGCUGCCAGUGAAGAAAUGAACAAAGAAAAUCUGGGCCAGGCAGGCAUCAAUAGAAAUAGUCUUGCGCUCAACCAGAGAGUCUGUAAUCAUUUUAAGGGUA [A91U A117G] | 1.88
GUUAACGGUCAUAGGCCAUGGAAACUAGGAGCACCAUUUCGCUGCCAGUGAAGAAAUGAACAAAGAAAAUCUGGGCCAGGCAGGCAUCAAUAGAAAUAGUCUUGCGCUCAACCAGAAAGUCUGUAAUCAUUUUAUGGGUA [A91U A135U] | 1.6
GUUAACGGUCAUAGGCCAUGGAAACUAGGAGCACCAUUUCGCUGCCAGUGAAGAAAUGAACAAAGAAAAUCUGGGCCAGGCAGGCAUCAAUAGAAAUAGUCUUGCGCUCAACCGGAAAGUCUGUAAUCAUUUUAAGGGUA [A91U A114G] | 0.62
GUUAACGGUCAUAGGCCAUGGAAACUAGGAGCACCAUUUCGCUGCCAGUGAAGAAAUGAACAAAGAAAAUCUGGGCCAGGCAGGCAUCAAUAGAAAUAGUCUUGCGCUCAACCUGAAAGUCUGUAAUCAUUUUAAGGGUA [A91U A114U] | 0.14
GUUAACGGUCAUAGGCCAUGGAAACUAGGAGCACCAUUUCGCUGCCAGUGAAGAAAUGAACAAAGAAAAUCUGGGCCAGGCAGGCAUCAAUAGAAAUAGUCUUGCGCUCAACCAGAAAGUCUGUAACCAUUUUAAGGGUA [A91U U127C] | 0.87
